According to patent US20070196883A1, “ENZYME” (UNIVERSITY OF DUNDEE, priority 1999, published 2007):

Tests used:
[1] = target: T1, His-PDK1 (Homo sapiens, UniProt O15530); experiment: Conversion of His-PDK1 into a Ser473 PKBα kinase by synthetic peptide (P-Ser473 immunoblot); format: biochemical; conditions: peptide at 20 µM, 3-phosphoinositide vesicles, MgATP
T1 construct: made in house; host or cells: Sf21 insect cells (baculovirus, pFASTBAC HTb)
T1 sequence (O15530 1-556): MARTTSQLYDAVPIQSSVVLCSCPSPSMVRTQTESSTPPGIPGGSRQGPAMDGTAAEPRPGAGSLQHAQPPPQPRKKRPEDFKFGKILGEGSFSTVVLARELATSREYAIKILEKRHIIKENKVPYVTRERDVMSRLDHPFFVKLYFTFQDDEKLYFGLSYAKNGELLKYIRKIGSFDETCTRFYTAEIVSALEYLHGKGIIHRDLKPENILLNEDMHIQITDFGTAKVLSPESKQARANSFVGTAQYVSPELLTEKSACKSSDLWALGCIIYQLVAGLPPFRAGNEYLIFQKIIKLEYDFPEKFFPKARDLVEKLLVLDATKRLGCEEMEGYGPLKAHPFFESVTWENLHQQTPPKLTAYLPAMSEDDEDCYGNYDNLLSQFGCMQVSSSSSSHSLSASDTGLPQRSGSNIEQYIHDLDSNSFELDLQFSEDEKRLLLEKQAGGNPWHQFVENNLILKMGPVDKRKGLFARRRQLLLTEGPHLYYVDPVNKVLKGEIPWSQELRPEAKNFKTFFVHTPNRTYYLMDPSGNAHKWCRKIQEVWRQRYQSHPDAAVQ
Experimental: FIG. 6. Conversion of PDK1 into an enzyme that can phosphorylate both Thr308 and Ser473 of PKB by addition of a synthetic peptide. […] After allowing to stand for 1 h at 4° C. GST-PKBα, MgATP and the indicated phospholipid vesicles containing 100 μM PtdCho, 100 μM PtdSer, and either 10 μM sn-1-stearoyl-2-arachidonoyl-D-PtdIns(3,4,5)P3 (1,2-SAD-PtdIns(3,4,5)P3), or sn-1,2 di-palmitoyl-D-PtdIns(3,4,5)P3 (C16-PtdIns(3,4,5)P3) or sn-1,2 di-palmitoyl-D-PtdIns(3,4)P2 (C16-PtdIns(3,4)P2) were added. After 1 h at 30° C., the reactions were terminated by making the solutions 1% in SDS, the samples were subjected to SDS/polyacylamide gel electrophoresis and immunoblotted using P-Ser473 antibody. Identical results were obtained in 2 separate experiments. […]
Phosphorylation of GST-PKBα by incubation with GST-PIF. In experiments in which the phosphorylation of PKBα was determined using the phospho-specific Ser473 PKBα antibodies, the incubations were identical to the Stage 1 described above except that the reactions were terminated by the addition of 1% (by mass) SDS and immunoblotting is carried out as described below. In experiments in which the sites of phosphorylation on PKBα are determined the incubations were identical to the Stage 1 described above except [γ^32P] […]

[2] = target: T2, endogenous PDK1 associated with GST-PIF (Homo sapiens, UniProt O15530); experiment: Dissociation of endogenous PDK1 from purified GST-PIF by peptide; format: binding; conditions: peptide 100 μM, GST-PIF purified from 293 cells
T2 construct: endogenous in cells; host or cells: 293 cells transfected with pEBG2T GST-PIF; endogenous PDK1 co-purified on glutathione-Sepharose
T2 sequence (Q16513 908-984 partner limits assumed, one chain of several): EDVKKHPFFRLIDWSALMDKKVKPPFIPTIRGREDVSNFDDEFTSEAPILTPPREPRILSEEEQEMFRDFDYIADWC
From the text: In contrast, a mutant peptide in which the residue corresponding to Asp978 was changed to Ala (termed “D978A-Region B peptide”) interacted with PDK1>fold 10-less strongly (FIG. 13).

inducing His-PDK1 to phosphorylate PKBα at Ser473 [1]: far less effective | dissociation of the endogenous PDK1 from GST-PIF [2]: incapable of inducing the dissociation
Substance: D978A-Region B peptide: mutant peptide in which the residue corresponding to Asp978 was changed to Ala (REPRILSEEEQEMFRDFAYIADWC)
